This note sets out measurements from publication PMC5347793, “Transcription factor LSF-DNMT1 complex dissociation by FQI1 leads to aberrant DNA methylation and gene expression” (Oncotarget, 2016).

The labels stand for the following.
B1: GST-DNMT1 (amino acids 1-446) (domain or fragment, human, UniProt P26358 1-446, looked up)
chain: MPARTAPARVPTLAVPAISLPDDVRRRLKDLERDSLTEKECVKEKLNLLHEFLQTEIKNQLCDLETKLRKEELSEEGYLAKVKSLLNKDLSLENGAHAYNREVNGRLENGNQARSEARRVGMADANSPPKPLSKPRTPRRSKSDGEAKPEPSPSPRITRKSTRQTTITSHFAKGPAKRKPQEESERAKSDESIKEEDKDQDEKRRRVTSRERVARPLPAEEPERAKSGTRTEKEEERDEKEEKRLRSQTKEPTPKQKLKEEPDREARAGVQADEDEDGDEKDEKKHRSQPKDLAAKRRPEEKEPEKVNPQISDEKDEDEKEEKRRKTTPKEPTEKKMARAKTVMNSKTHPPKCIQCGQYLDDPDLKYGQHPPDAVDEPQMLTNEKLSIFDANESGFESYEALPQHKLTCFSVYCKHGHLCPIDTGLIEKNIELFFSGSAKPIYDDD
B2: GST-LSF (amino acids 65-259), DNA binding domain (domain or fragment, human, UniProt Q12800 65-259, looked up)
chain: LPFQYVLCAATSPAVKLHDETLTYLNQGQSYEIRMLDNRKLGELPEINGKLVKSIFRVVFHDRRLQYTEHQQLEGWRWNRPGDRILDIDIPMSVGIIDPRANPTQLNTVEFLWDPAKRTSVFIQVHCISTEFTMRKHGGEKGVPFRVQIDTFKENENGEYTEHLHSASCQIKVFKPKGADRKQKTDREKMEKRTP
notes: Cloned into pGEX-5X-1; also called LSF65-259; source: E. coli, captured on Glutathione Sepharose beads
B3: GST-DNMT1 (amino acids 431-836) (domain or fragment, human, UniProt P26358 431-836, looked up)
chain: IELFFSGSAKPIYDDDPSLEGGVNGKNLGPINEWWITGFDGGEKALIGFSTSFAEYILMDPSPEYAPIFGLMQEKIYISKIVVEFLQSNSDSTYEDLINKIETTVPPSGLNLNRFTEDSLLRHAQFVVEQVESYDEAGDSDEQPIFLTPCMRDLIKLAGVTLGQRRAQARRQTIRHSTREKDRGPTKATTTKLVYQIFDTFFAEQIEKDDREDKENAFKRRRCGVCEVCQQPECGKCKACKDMVKFGGSGRSKQACQERRCPNMAMKEADDDEEVDDNIPEMPSPKKMHQGKKKKQNKNRISWVGEAVKTDGKKSYYKKVCIDAETLEVGDCVSVIPDDSSKPLYLARVTALWEDSSNGQMFHAHWFCAGTDTVLGATSDPLELFLVDECEDMQLSYIHSKVKVIY
B4: MBP-LSF fusion protein (purified full-length LSF) (natural protein, human, UniProt Q12800 1-502, looked up)
chain: MAWALKLPLADEVIESGLVQDFDASLSGIGQELGAGAYSMSDVLALPIFKQEESSLPPDNENKILPFQYVLCAATSPAVKLHDETLTYLNQGQSYEIRMLDNRKLGELPEINGKLVKSIFRVVFHDRRLQYTEHQQLEGWRWNRPGDRILDIDIPMSVGIIDPRANPTQLNTVEFLWDPAKRTSVFIQVHCISTEFTMRKHGGEKGVPFRVQIDTFKENENGEYTEHLHSASCQIKVFKPKGADRKQKTDREKMEKRTPHEKEKYQPSYETTILTECSPWPEITYVNNSPSPGFNSSHSSFSLGEGNGSPNHQPEPPPPVTDNLLPTTTPQEAQQWLHRNRFSTFTRLFTNFSGADLLKLTRDDVIQICGPADGIRLFNALKGRMVRPRLTIYVCQESLQLREQQQQQQQQQQKHEDGDSNGTFFVYHAIYLEELTAVELTEKIAQLFSISPCQISQIYKQGPTGIHVLISDEMIQNFQEEACFILDTMKAETNDSYHIILK

Assay [1] deals with B4. Briefly: pull-down; GST-DNMT1 fusions on beads incubated with 1 ug purified MBP-LSF; immunoblot with anti-LSF. Conditions: both partners purified.
Assay [2] deals with T1, purified full-length DNMT1 (recombinant, baculovirus expressed) (human, UniProt P26358 1-1616).
T1 construct: DNMT1, human, full length; source: recombinant baculovirus expressed, purified
Briefly: pull-down; as a4, in the presence of 2.5 uM FQI1. The following applies: both partners purified.

For assay [3], the target named is T1, purified full-length DNMT1 …. Briefly: cell-based or functional assay.

With B1, the binding result in assay [1] is “binds”. Regarding B2, the binding result in assay [2] is reported as “binds”.

In the case of B3, the binding result in assay [1] was “binds”. As for B4, the “DNA methyltransferase activity of purified DNMT1 (80 nM) with His-LSF recombinant protein, molar ratio of His-LSF to DNMT1 from 2:1 to 4:1” value in assay [3] was around 2 fold.
